Experiment [1] has as its target T1, hCD16a-Biotin (human, UniProt P08637 17-208, biotin (site not stated)).
T1 construct: also called CD16 (FcγRIIIa); CD16a (FcGRIIIa)
Nature of the experiment: binding kinetics on hCD16a-Biotin, signal (nm) against time (sec); platform not named. On the procedure:
(§1) Binding affinity of VEGF antagonists to Fc receptors CD16 (FcγRIIIa), CD64 (FcγRI), and FcRn was evaluated using hCD16-biotin, hCD64-biotin, and hFcRn-β2M-biotin.
(§2) For FcγRIIIa and FcγRI binding assessments, each construct was diluted 1:5 from a starting concentration of 50 nM, except Hex-REGN3 (IgG1) Mut1 PVA/P329A, which was evaluated only at the highest concentration. For FcRn assessments, each construct was diluted 1:5 from a starting concentration of 200 nM, except Hex-REGN3 (IgG1) Mut1 PVA/P329A, which was evaluated only at the highest concentration.

Experiment [2] deals with T2, hCD64-Biotin (human, UniProt P12314 16-288, limits assumed, biotin (site not stated)).
T2 construct: also called CD64 (FcγRI); CD64 (FcGRI)
T2 sequence (P12314 16-288 limits assumed): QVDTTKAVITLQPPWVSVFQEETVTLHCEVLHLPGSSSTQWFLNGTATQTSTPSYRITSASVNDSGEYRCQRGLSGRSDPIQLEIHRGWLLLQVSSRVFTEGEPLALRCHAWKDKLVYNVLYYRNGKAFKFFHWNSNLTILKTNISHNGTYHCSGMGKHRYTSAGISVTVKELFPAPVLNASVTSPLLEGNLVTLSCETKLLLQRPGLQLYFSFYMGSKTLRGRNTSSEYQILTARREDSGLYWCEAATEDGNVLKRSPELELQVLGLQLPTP
As to the kind of experiment: binding kinetics on hCD64-Biotin, signal (nm) against time (sec); construct diluted 1:5 from 50 nM, concentrations not labelled on the sheet; platform not named. As for the experimental part: as §1, §2

In experiment [3] the target is T3, hFcRn-β2M-Biotin (human, UniProt P55899 24-297; P61769 21-119, biotin (site and chain not stated)). Nature of the experiment: binding kinetics on hFcRn-β2M-Biotin, signal (nm) against time (sec); construct diluted 1:5 from 200 nM, concentrations not labelled on the sheet; platform not named. As for the experimental part: as §1, §2
T3 sequence (P55899 24-297 limits assumed, chain 1 of 2): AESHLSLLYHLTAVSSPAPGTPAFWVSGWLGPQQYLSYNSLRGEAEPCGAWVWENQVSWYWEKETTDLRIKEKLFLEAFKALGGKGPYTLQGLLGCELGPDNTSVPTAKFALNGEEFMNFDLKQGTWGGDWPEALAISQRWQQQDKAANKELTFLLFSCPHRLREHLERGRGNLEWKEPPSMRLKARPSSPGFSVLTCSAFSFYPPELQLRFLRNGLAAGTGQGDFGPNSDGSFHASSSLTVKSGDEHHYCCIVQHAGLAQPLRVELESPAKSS
T3 sequence (P61769 21-119 limits assumed, chain 2 of 2): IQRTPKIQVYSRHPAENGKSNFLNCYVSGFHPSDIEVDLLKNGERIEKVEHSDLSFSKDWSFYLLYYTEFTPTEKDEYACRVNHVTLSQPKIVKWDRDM
In experiment [4] the target is T2, hCD64-Biotin. Nature of the experiment: binding kinetics on hCD64-Biotin, instrument not named. On the procedure:
as §1, §2

The target in experiment [5] is T3, hFcRn-β2M-Biotin. Nature of the experiment: binding kinetics on hFcRn-β2M-Biotin, instrument not named. On the procedure: as §1, §2
Experiment [6] deals with T2, hCD64-Biotin. As to the kind of experiment: binding kinetics on hCD64-Biotin, signal (nm) against time (sec); platform not named. As for the experimental part:
as §1, §2

T1 sequence (P08637 17-208 limits assumed): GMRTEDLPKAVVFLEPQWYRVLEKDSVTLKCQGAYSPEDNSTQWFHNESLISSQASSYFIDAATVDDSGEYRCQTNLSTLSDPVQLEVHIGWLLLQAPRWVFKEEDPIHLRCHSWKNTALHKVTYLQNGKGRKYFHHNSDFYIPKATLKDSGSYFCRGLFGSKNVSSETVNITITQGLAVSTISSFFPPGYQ

B1: Hex-REGN3 (IgG1) Mut2 LALAPG (Fc fusion)
chain: SDTGRPFVEMYSEIPEIIHMTEGRELVIPCRVTSPNITVTLKKFPLDTLIPDGKRIIWDSRKGFIISNATYKEIGLLTCEATVNGHLYKTNYLTHRQTNTIIDVVLSPSHGIELSVGEKLVLNCTARTELNVGIDFNWEYPSSKHQHKKLVNRDLKTQSGSEMKKFLSTLTIDGVTRSDQGLYTCAASSGLMTKKNSTFVRVHEKDKTHTCPPCPAPEAAGGPSVFLFPPKPKDTLMCSRTPEVTCVVVDVSHEAPEVKFNWYVDGVEVHNAKTKPREEQYNSTYRVVSVLTVLHQDWLNGKEYKCKVSNKALGAGIEKTISKAKGQPREPQVYTLPPSRDELTKNQVSLTCLVKGFYPSDIAVEWESNGQPENNYKTTPPVLDSDGSFFLYSKLTVDKSRWQQGNVFSCSVMHEALHNHYTQKSLSLSPGKPTLYNVSLVMSDTAGTCY
notes: Hexameric VEGF antagonist designed as six dimers
Consider B1, for which the binding result in experiment [1] is on record as “no binding (tested: 50 nM (not printed on the sheet))”; in experiment [2], “binds”; in experiment [3], “binds”.

B2: Hex-REGN3 (IgG1) Mut1 LALAPG (Fc fusion)
chain: SDTGRPFVEMYSEIPEIIHMTEGRELVIPCRVTSPNITVTLKKFPLDTLIPDGKRIIWDSRKGFIISNATYKEIGLLTCEATVNGHLYKTNYLTHRQTNTIIDVVLSPSHGIELSVGEKLVLNCTARTELNVGIDFNWEYPSSKHQHKKLVNRDLKTQSGSEMKKFLSTLTIDGVTRSDQGLYTCAASSGLMTKKNSTFVRVHEKDKTHTCPPCPAPEAAGGPSVFLFPPKPKDTLMISRTPEVTCVVVDVSHEDPEVKFNWYVDGVEVHNAKTKPREEQYNSTYRVVSVLTVCHQDWLNGKEYKCKVSNKALGAPIEKTISKAKGQPREPQVYTLPPSREEMTKNQVSLTCLVKGFYPSDIAVEWESNGQPENNYKTTPPVLDSDGSFFLYSKLTVDKSRWQQGNVFSCSVMHEALHNHYTQKSLDKSTGKPTLYNVSLIMSDTGGTCY
notes: Hexamer of six dimers (VEGFR1 domain 2 - VEGFR2 domain 3 - IgG1 Fc - IgM tailpiece); also called HEX-REGN3 (IgG1) LALAPG Mut1; hexameric Hex-REGN3
A word on the Kd: it is a measure of binding affinity in units of concentration. Broadly, the koff is the first-order rate constant of dissociation. For orientation: kon means the second-order rate constant of association. A high value points to faster complex formation. Regarding B2, in experiment [4], the Kd worked out at 0.0638 nM, the koff stood at 0.000511 s⁻¹ and the association rate constant (kon) stood at 8.01e+06 M⁻¹ s⁻¹. In experiment [5], the Kd was less than 0.001 nM, the dissociation rate constant (koff) was less than 1e-07 s⁻¹ and the kon is 31000 M⁻¹ s⁻¹. Besides, the binding result in experiment [1] is “no binding (tested: 50 nM (not printed on the sheet))”.

B3: Hex-REGN3 (IgG1) Mut1-V2 PVA/P329A (Fc fusion)
chain: SDTGRPFVEMYSEIPEIIHMTEGRELVIPCRVTSPNITVTLKKFPLDTLIPDGKRIIWDSRKGFIISNATYKEIGLLTCEATVNGHLYKTNYLTHRQTNTIIDVVLSPSHGIELSVGEKLVLNCTARTELNVGIDFNWEYPSSKHQHKKLVNRDLKTQSGSEMKKFLSTLTIDGVTRSDQGLYTCAASSGLMTKKNSTFVRVHEKDKTHTCPPCPAPPVAGPSVFLFPPKPKDTLMISRTPEVTCVVVDVSHEDPEVKFNWYVDGVEVHNAKTKPREEQYNSTYRVVSVLTVCHQDWLNGKEYKCKVSNKALAAPIEKTISKAKGQPREPQVYTLPPSREEMTKNQVSLTCLVKGFYPSDIAVEWESNGQPENNYKTTPPVLDSDGSFFLYSKLTVDKSRWQQGNVFSCSVMHEALHNHYTQKSLDKSTGKPTLYNVSLVMSDTAGTCY
notes: Hexameric VEGF antagonist designed as six dimers; also called Hex-REGN3 (IgG1) Mut1 PVA/P329A
B3: the binding result in experiment [6] and in experiment [1] was “no binding (tested: 50 nM (not printed on the sheet))” throughout.

(Values after patent US20260055171A1 (Regeneron, published 2026).)
